Data reported in patent publication US20200270325A1 (Merck Sharp & Dohme, published 2020).
Numbered stars: 1 amine (or outer) side, 2 acyl side, 3 side chain; on linkers, the order of the positions; unused ones are H or OH. Square brackets hold non-standard residues; d marks the D form. Side chains are listed from the residue outwards. Ends that are not written are not given here. * marks the point of attachment. C18 diacid = O=C(O)CCCCCCCCCCCCCCCCC(=O)*; C16 diacid = O=C(O)CCCCCCCCCCCCCCC(=O)*; γGlu = O=C(O)[C@H](CCC(=O)[*:2])N[*:1]; Met(O2) = CS(=O)(=O)CC[C@H](N)C(=O)O; αMeD = C[C@](N)(CC(=O)O)C(=O)O; αMeS = C[C@](N)(CO)C(=O)O; AEEA = NCCOCCOCC(=O)O; Aib = CC(C)(N)C(=O)O; C16 = lipid (C16)

Tests used:
[1] = molecular target: human GLP-1 receptor (GLP1R) (human, UniProt P43220 24-463); test: cell-based or functional assay
[2] = molecular target: human Glucagon receptor (GCGR) (human, UniProt P47871 26-477); test: cell-based or functional assay
Chain of human Glucagon receptor (GCGR) (P47871 26-477): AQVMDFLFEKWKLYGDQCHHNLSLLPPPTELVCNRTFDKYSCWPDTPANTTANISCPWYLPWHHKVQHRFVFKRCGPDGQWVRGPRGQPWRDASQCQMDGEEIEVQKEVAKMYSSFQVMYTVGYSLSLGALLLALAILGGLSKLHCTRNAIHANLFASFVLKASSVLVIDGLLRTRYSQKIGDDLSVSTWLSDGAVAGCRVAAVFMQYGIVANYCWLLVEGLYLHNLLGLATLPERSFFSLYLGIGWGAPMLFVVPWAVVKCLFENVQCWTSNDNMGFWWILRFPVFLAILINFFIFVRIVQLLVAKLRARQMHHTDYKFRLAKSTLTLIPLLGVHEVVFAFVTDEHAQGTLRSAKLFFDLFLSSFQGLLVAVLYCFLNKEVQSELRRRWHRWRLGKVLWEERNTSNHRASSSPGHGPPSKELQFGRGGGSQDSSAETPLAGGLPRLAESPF

B1: TP616 (peptide)
peptide: H[αMeS]QGTFTSDYSKYLDARAAK([AEEA-AEEA-γGlu-C18 diacid])DFVQWL[Met(O2)][αMeD]T-NH2
modifications: N-terminus assumed
SMILES: CC(C)C[C@H](NC(=O)[C@H](Cc1ccc(O)cc1)NC(=O)[C@H](CCCCN)NC(=O)[C@H](CO)NC(=O)[C@H](Cc1ccc(O)cc1)NC(=O)[C@H](CC(=O)O)NC(=O)[C@H](CO)NC(=O)[C@@H](NC(=O)[C@H](Cc1ccccc1)NC(=O)[C@@H](NC(=O)CNC(=O)[C@H](CCC(N)=O)NC(=O)[C@](C)(CO)NC(=O)[C@@H](N)Cc1c[nH]cn1)[C@@H](C)O)[C@@H](C)O)C(=O)N[C@@H](CC(=O)O)C(=O)N[C@@H](C)C(=O)N[C@@H](CCCNC(=N)N)C(=O)N[C@@H](C)C(=O)N[C@@H](C)C(=O)N[C@@H](CCCCNC(=O)COCCOCCNC(=O)COCCOCCNC(=O)CC[C@H](NC(=O)CCCCCCCCCCCCCCCCC(=O)O)C(=O)O)C(=O)N[C@@H](CC(=O)O)C(=O)N[C@@H](Cc1ccccc1)C(=O)N[C@H](C(=O)N[C@@H](CCC(N)=O)C(=O)N[C@@H](Cc1c[nH]c2ccccc12)C(=O)N[C@@H](CC(C)C)C(=O)N[C@@H](CCS(C)(=O)=O)C(=O)N[C@@](C)(CC(=O)O)C(=O)N[C@H](C(N)=O)[C@@H](C)O)C(C)C
- GLP1R EC50 human [1]: 1.96 nM
- GCGR EC50 human [2]: 1.39 nM

B2: TP606 (peptide)
peptide: H[Aib]QGTFTSDK([γGlu-γGlu-C16])SKYLDARAAK([AEEA-AEEA-γGlu-C16 diacid])DFVQWL[Met(O2)]DT-NH2
- GLP1R EC50 human [1]: 1.84 nM
- GCGR EC50 human [2]: 1.01 nM

B3: TP617 (peptide)
peptide: H[αMeS]QGTFTSDYSKYLDARAAQK([AEEA-AEEA-γGlu-C18 diacid])FVQWL[Met(O2)][αMeD]T-NH2
modifications: N-terminus assumed
SMILES: CC(C)C[C@H](NC(=O)[C@H](Cc1ccc(O)cc1)NC(=O)[C@H](CCCCN)NC(=O)[C@H](CO)NC(=O)[C@H](Cc1ccc(O)cc1)NC(=O)[C@H](CC(=O)O)NC(=O)[C@H](CO)NC(=O)[C@@H](NC(=O)[C@H](Cc1ccccc1)NC(=O)[C@@H](NC(=O)CNC(=O)[C@H](CCC(N)=O)NC(=O)[C@](C)(CO)NC(=O)[C@@H](N)Cc1c[nH]cn1)[C@@H](C)O)[C@@H](C)O)C(=O)N[C@@H](CC(=O)O)C(=O)N[C@@H](C)C(=O)N[C@@H](CCCNC(=N)N)C(=O)N[C@@H](C)C(=O)N[C@@H](C)C(=O)N[C@@H](CCC(N)=O)C(=O)N[C@@H](CCCCNC(=O)COCCOCCNC(=O)COCCOCCNC(=O)CC[C@H](NC(=O)CCCCCCCCCCCCCCCCC(=O)O)C(=O)O)C(=O)N[C@@H](Cc1ccccc1)C(=O)N[C@H](C(=O)N[C@@H](CCC(N)=O)C(=O)N[C@@H](Cc1c[nH]c2ccccc12)C(=O)N[C@@H](CC(C)C)C(=O)N[C@@H](CCS(C)(=O)=O)C(=O)N[C@@](C)(CC(=O)O)C(=O)N[C@H](C(N)=O)[C@@H](C)O)C(C)C
- GLP1R EC50 human [1]: 0.76 nM
- GCGR EC50 human [2]: 0.56 nM

B4: TP615 (peptide)
peptide: H[αMeS]QGTFTSDYSKYLDARAAQK([AEEA-AEEA-γGlu-C16 diacid])FVQWL[Met(O2)][αMeD]T-NH2
modifications: N-terminus assumed
SMILES: CC(C)C[C@H](NC(=O)[C@H](Cc1ccc(O)cc1)NC(=O)[C@H](CCCCN)NC(=O)[C@H](CO)NC(=O)[C@H](Cc1ccc(O)cc1)NC(=O)[C@H](CC(=O)O)NC(=O)[C@H](CO)NC(=O)[C@@H](NC(=O)[C@H](Cc1ccccc1)NC(=O)[C@@H](NC(=O)CNC(=O)[C@H](CCC(N)=O)NC(=O)[C@](C)(CO)NC(=O)[C@@H](N)Cc1c[nH]cn1)[C@@H](C)O)[C@@H](C)O)C(=O)N[C@@H](CC(=O)O)C(=O)N[C@@H](C)C(=O)N[C@@H](CCCNC(=N)N)C(=O)N[C@@H](C)C(=O)N[C@@H](C)C(=O)N[C@@H](CCC(N)=O)C(=O)N[C@@H](CCCCNC(=O)COCCOCCNC(=O)COCCOCCNC(=O)CC[C@H](NC(=O)CCCCCCCCCCCCCCC(=O)O)C(=O)O)C(=O)N[C@@H](Cc1ccccc1)C(=O)N[C@H](C(=O)N[C@@H](CCC(N)=O)C(=O)N[C@@H](Cc1c[nH]c2ccccc12)C(=O)N[C@@H](CC(C)C)C(=O)N[C@@H](CCS(C)(=O)=O)C(=O)N[C@@](C)(CC(=O)O)C(=O)N[C@H](C(N)=O)[C@@H](C)O)C(C)C
- GLP1R EC50 human [1]: 0.4 nM
- GCGR EC50 human [2]: 0.26 nM

B5: TP612 (peptide)
peptide: H[Aib]QGTFTSDYSKYL[αMeD]ARAAK([AEEA-AEEA-γGlu-C18 diacid])[αMeD]FVQWL[Met(O2)][αMeD]T-NH2
modifications: N-terminus assumed
SMILES: CC(C)C[C@H](NC(=O)[C@H](Cc1c[nH]c2ccccc12)NC(=O)[C@H](CCC(N)=O)NC(=O)[C@@H](NC(=O)[C@H](Cc1ccccc1)NC(=O)[C@](C)(CC(=O)O)NC(=O)[C@H](CCCCNC(=O)COCCOCCNC(=O)COCCOCCNC(=O)CC[C@H](NC(=O)CCCCCCCCCCCCCCCCC(=O)O)C(=O)O)NC(=O)[C@H](C)NC(=O)[C@H](C)NC(=O)[C@H](CCCNC(=N)N)NC(=O)[C@H](C)NC(=O)[C@](C)(CC(=O)O)NC(=O)[C@H](CC(C)C)NC(=O)[C@H](Cc1ccc(O)cc1)NC(=O)[C@H](CCCCN)NC(=O)[C@H](CO)NC(=O)[C@H](Cc1ccc(O)cc1)NC(=O)[C@H](CC(=O)O)NC(=O)[C@H](CO)NC(=O)[C@@H](NC(=O)[C@H](Cc1ccccc1)NC(=O)[C@@H](NC(=O)CNC(=O)[C@H](CCC(N)=O)NC(=O)C(C)(C)NC(=O)[C@@H](N)Cc1c[nH]cn1)[C@@H](C)O)[C@@H](C)O)C(C)C)C(=O)N[C@@H](CCS(C)(=O)=O)C(=O)N[C@@](C)(CC(=O)O)C(=O)N[C@H](C(N)=O)[C@@H](C)O
- GLP1R EC50 human [1]: 4.95 nM
- GCGR EC50 human [2]: 2.04 nM

B6: TP607 (peptide)
peptide: H[Aib]QGTFTSDK([γGlu-γGlu-C16])SKYLDARAAQDFVK([AEEA-AEEA-γGlu-C16 diacid])WL[Met(O2)][αMeD]T-NH2
- GLP1R EC50 human [1]: 1.06 nM
- GCGR EC50 human [2]: 0.57 nM

B7: TP613 (peptide)
peptide: H[Aib]QGTFTSDYSKYLDERAAK([AEEA-AEEA-γGlu-C18 diacid])DFVQWL[Met(O2)][αMeD]T-NH2
modifications: N-terminus assumed
SMILES: CC(C)C[C@H](NC(=O)[C@H](Cc1ccc(O)cc1)NC(=O)[C@H](CCCCN)NC(=O)[C@H](CO)NC(=O)[C@H](Cc1ccc(O)cc1)NC(=O)[C@H](CC(=O)O)NC(=O)[C@H](CO)NC(=O)[C@@H](NC(=O)[C@H](Cc1ccccc1)NC(=O)[C@@H](NC(=O)CNC(=O)[C@H](CCC(N)=O)NC(=O)C(C)(C)NC(=O)[C@@H](N)Cc1c[nH]cn1)[C@@H](C)O)[C@@H](C)O)C(=O)N[C@@H](CC(=O)O)C(=O)N[C@@H](CCC(=O)O)C(=O)N[C@@H](CCCNC(=N)N)C(=O)N[C@@H](C)C(=O)N[C@@H](C)C(=O)N[C@@H](CCCCNC(=O)COCCOCCNC(=O)COCCOCCNC(=O)CC[C@H](NC(=O)CCCCCCCCCCCCCCCCC(=O)O)C(=O)O)C(=O)N[C@@H](CC(=O)O)C(=O)N[C@@H](Cc1ccccc1)C(=O)N[C@H](C(=O)N[C@@H](CCC(N)=O)C(=O)N[C@@H](Cc1c[nH]c2ccccc12)C(=O)N[C@@H](CC(C)C)C(=O)N[C@@H](CCS(C)(=O)=O)C(=O)N[C@@](C)(CC(=O)O)C(=O)N[C@H](C(N)=O)[C@@H](C)O)C(C)C
- GLP1R EC50 human [1]: 3.34 nM
- GCGR EC50 human [2]: > 5 nM

B8: TP611 (peptide)
peptide: HXQGTFTSDYSKYLDARAAXXFVQWLXXT
modifications: Aib (U) at 2; K(PEG2PEG2γEC18-OH) at 20; αMD at 21; L-methionine sulphone (2) at 27; αMD at 28; C-terminal amide
- GLP1R EC50 human [1]: > 5 nM
- GCGR EC50 human [2]: 0.2 nM

B9: TP610 (peptide)
peptide: H[Aib]QGTFTSDYSKYL[αMeD]ARAAK([AEEA-AEEA-γGlu-C18 diacid])DFVQWL[Met(O2)][αMeD]T-NH2
modifications: N-terminus assumed
SMILES: CC(C)C[C@H](NC(=O)[C@H](Cc1c[nH]c2ccccc12)NC(=O)[C@H](CCC(N)=O)NC(=O)[C@@H](NC(=O)[C@H](Cc1ccccc1)NC(=O)[C@H](CC(=O)O)NC(=O)[C@H](CCCCNC(=O)COCCOCCNC(=O)COCCOCCNC(=O)CC[C@H](NC(=O)CCCCCCCCCCCCCCCCC(=O)O)C(=O)O)NC(=O)[C@H](C)NC(=O)[C@H](C)NC(=O)[C@H](CCCNC(=N)N)NC(=O)[C@H](C)NC(=O)[C@](C)(CC(=O)O)NC(=O)[C@H](CC(C)C)NC(=O)[C@H](Cc1ccc(O)cc1)NC(=O)[C@H](CCCCN)NC(=O)[C@H](CO)NC(=O)[C@H](Cc1ccc(O)cc1)NC(=O)[C@H](CC(=O)O)NC(=O)[C@H](CO)NC(=O)[C@@H](NC(=O)[C@H](Cc1ccccc1)NC(=O)[C@@H](NC(=O)CNC(=O)[C@H](CCC(N)=O)NC(=O)C(C)(C)NC(=O)[C@@H](N)Cc1c[nH]cn1)[C@@H](C)O)[C@@H](C)O)C(C)C)C(=O)N[C@@H](CCS(C)(=O)=O)C(=O)N[C@@](C)(CC(=O)O)C(=O)N[C@H](C(N)=O)[C@@H](C)O
- GLP1R EC50 human [1]: > 5 nM
- GCGR EC50 human [2]: 0.19 nM

B10: TP614 (peptide)
peptide: H[αMeS]QGTFTSDYSKYLDARAAK([AEEA-AEEA-γGlu-C16 diacid])DFVQWL[Met(O2)][αMeD]T-NH2
modifications: N-terminus assumed
SMILES: CC(C)C[C@H](NC(=O)[C@H](Cc1ccc(O)cc1)NC(=O)[C@H](CCCCN)NC(=O)[C@H](CO)NC(=O)[C@H](Cc1ccc(O)cc1)NC(=O)[C@H](CC(=O)O)NC(=O)[C@H](CO)NC(=O)[C@@H](NC(=O)[C@H](Cc1ccccc1)NC(=O)[C@@H](NC(=O)CNC(=O)[C@H](CCC(N)=O)NC(=O)[C@](C)(CO)NC(=O)[C@@H](N)Cc1c[nH]cn1)[C@@H](C)O)[C@@H](C)O)C(=O)N[C@@H](CC(=O)O)C(=O)N[C@@H](C)C(=O)N[C@@H](CCCNC(=N)N)C(=O)N[C@@H](C)C(=O)N[C@@H](C)C(=O)N[C@@H](CCCCNC(=O)COCCOCCNC(=O)COCCOCCNC(=O)CC[C@H](NC(=O)CCCCCCCCCCCCCCC(=O)O)C(=O)O)C(=O)N[C@@H](CC(=O)O)C(=O)N[C@@H](Cc1ccccc1)C(=O)N[C@H](C(=O)N[C@@H](CCC(N)=O)C(=O)N[C@@H](Cc1c[nH]c2ccccc12)C(=O)N[C@@H](CC(C)C)C(=O)N[C@@H](CCS(C)(=O)=O)C(=O)N[C@@](C)(CC(=O)O)C(=O)N[C@H](C(N)=O)[C@@H](C)O)C(C)C
- GLP1R EC50 human [1]: 1.4 nM
- GCGR EC50 human [2]: 0.86 nM
